{"source": "the supplement of paper PMC9112550", "about": "“Optimization of the antimicrobial peptide Bac7 by deep mutational scanning” (BMC Biology, 2022);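 further: peptides expressed intracellularly from a pBAD plasmid library in pooled LB shake-flask culture, induced with 0.3% L-arabinose, DNA abundance read by NGS, three biological replicates, DESeq2 with apeglm shrinkage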"}
{"tested_on": "Escherichia coli TOP10", "assay": "shrunken log2 fold change of peptide-encoding DNA abundance (4.5 h post-induction vs induction); higher = less antimicrobial activity (less host growth inhibition)", "conditions": "time post-induction: 4.5 h; library: site-saturation at positions 5, 18, 19, 20"}
{"sequence": "RRIRGRPPRLPRPRPRPYTDPRP", "shrunken log2 fold change": -0.417}
{"sequence": "RRIRWRPPRLPRPRPRPNKMPRP", "shrunken log2 fold change": 0.075}
{"sequence": "RRIRFRPPRLPRPRPRPEMGPRP", "shrunken log2 fold change": 0.0117}
{"sequence": "RRIRTRPPRLPRPRPRPPDVPRP", "shrunken log2 fold change": 0.176}
{"sequence": "RRIRGRPPRLPRPRPRPMFGPRP", "shrunken log2 fold change": 0.39}
{"sequence": "RRIRLRPPRLPRPRPRPQPEPRP", "shrunken log2 fold change": 0.419}
{"sequence": "RRIRWRPPRLPRPRPRPPMNPRP", "shrunken log2 fold change": -0.0715}
{"sequence": "RRIRGRPPRLPRPRPRPTSDPRP", "shrunken log2 fold change": 0.931}
{"sequence": "RRIRPRPPRLPRPRPRPHPVPRP", "shrunken log2 fold change": 0.151}
{"sequence": "RRIRVRPPRLPRPRPRPCTVPRP", "shrunken log2 fold change": -0.14}
{"sequence": "RRIRFRPPRLPRPRPRPRGPPRP", "shrunken log2 fold change": 0.763}
{"sequence": "RRIRARPPRLPRPRPRPTTEPRP", "shrunken log2 fold change": 0.443}
{"sequence": "RRIRKRPPRLPRPRPRPIVKPRP", "shrunken log2 fold change": -0.158}
{"sequence": "RRIRSRPPRLPRPRPRPVNIPRP", "shrunken log2 fold change": -0.261}
{"sequence": "RRIRTRPPRLPRPRPRPWQYPRP", "shrunken log2 fold change": 0.0126}
{"sequence": "RRIRLRPPRLPRPRPRPNENPRP", "shrunken log2 fold change": -0.189}
{"sequence": "RRIRWRPPRLPRPRPRPPKSPRP", "shrunken log2 fold change": 0.789}
{"sequence": "RRIRDRPPRLPRPRPRPNLIPRP", "shrunken log2 fold change": -0.15}
{"sequence": "RRIRGRPPRLPRPRPRPYGKPRP", "shrunken log2 fold change": -0.124}
{"sequence": "RRIRWRPPRLPRPRPRPWFRPRP", "shrunken log2 fold change": -0.251}
{"sequence": "RRIRVRPPRLPRPRPRPPCLPRP", "shrunken log2 fold change": -0.108}
{"sequence": "RRIRKRPPRLPRPRPRPVLEPRP", "shrunken log2 fold change": 0.475}
{"sequence": "RRIRNRPPRLPRPRPRPNWLPRP", "shrunken log2 fold change": 0.0494}
{"sequence": "RRIRLRPPRLPRPRPRPYSSPRP", "shrunken log2 fold change": -0.203}
{"sequence": "RRIRCRPPRLPRPRPRPFVWPRP", "shrunken log2 fold change": 0.0706}
{"sequence": "RRIRLRPPRLPRPRPRPYHNPRP", "shrunken log2 fold change": -0.712}
{"sequence": "RRIRGRPPRLPRPRPRPDCKPRP", "shrunken log2 fold change": 0.577}
{"sequence": "RRIRKRPPRLPRPRPRPDVPPRP", "shrunken log2 fold change": 0.501}
{"sequence": "RRIRKRPPRLPRPRPRPGCYPRP", "shrunken log2 fold change": 0.144}
{"sequence": "RRIRFRPPRLPRPRPRPISFPRP", "shrunken log2 fold change": -0.0661}
{"sequence": "RRIRCRPPRLPRPRPRPDFLPRP", "shrunken log2 fold change": -0.657}
{"sequence": "RRIRDRPPRLPRPRPRPMDVPRP", "shrunken log2 fold change": -0.0846}
{"sequence": "RRIRPRPPRLPRPRPRPMQNPRP", "shrunken log2 fold change": 0.201}
{"sequence": "RRIRHRPPRLPRPRPRPVNRPRP", "shrunken log2 fold change": -0.26}
{"sequence": "RRIRMRPPRLPRPRPRPFPAPRP", "shrunken log2 fold change": 0.426}
{"sequence": "RRIRRRPPRLPRPRPRPPMTPRP", "shrunken log2 fold change": 0.43}
{"sequence": "RRIRSRPPRLPRPRPRPSMDPRP", "shrunken log2 fold change": -0.514}
{"sequence": "RRIRGRPPRLPRPRPRPYNHPRP", "shrunken log2 fold change": -0.983}
{"sequence": "RRIRMRPPRLPRPRPRPFSRPRP", "shrunken log2 fold change": 0.0409}
{"sequence": "RRIRNRPPRLPRPRPRPMFCPRP", "shrunken log2 fold change": 0.0294}
{"sequence": "RRIRMRPPRLPRPRPRPAFGPRP", "shrunken log2 fold change": 1.05}
{"sequence": "RRIRNRPPRLPRPRPRPFGKPRP", "shrunken log2 fold change": -0.0788}
{"sequence": "RRIRNRPPRLPRPRPRPQYIPRP", "shrunken log2 fold change": -0.0546}
{"sequence": "RRIRDRPPRLPRPRPRPESSPRP", "shrunken log2 fold change": 0.27}
{"sequence": "RRIRLRPPRLPRPRPRPLWEPRP", "shrunken log2 fold change": 0.697}
{"sequence": "RRIRIRPPRLPRPRPRPCVCPRP", "shrunken log2 fold change": -0.0463}
{"sequence": "RRIRGRPPRLPRPRPRPLFPPRP", "shrunken log2 fold change": 0.406}
{"sequence": "RRIRMRPPRLPRPRPRPTLPPRP", "shrunken log2 fold change": 0.248}
{"sequence": "RRIRARPPRLPRPRPRPCMTPRP", "shrunken log2 fold change": 0.591}
{"sequence": "RRIRARPPRLPRPRPRPYDCPRP", "shrunken log2 fold change": -0.131}
{"sequence": "RRIRIRPPRLPRPRPRPIISPRP", "shrunken log2 fold change": -0.101}
{"sequence": "RRIRMRPPRLPRPRPRPAHFPRP", "shrunken log2 fold change": 0.152}
{"sequence": "RRIRTRPPRLPRPRPRPEYCPRP", "shrunken log2 fold change": -0.189}
{"sequence": "RRIRGRPPRLPRPRPRPSCVPRP", "shrunken log2 fold change": 0.499}
{"sequence": "RRIRRRPPRLPRPRPRPYSEPRP", "shrunken log2 fold change": -0.154}
{"sequence": "RRIRRRPPRLPRPRPRPCAAPRP", "shrunken log2 fold change": 0.743}
{"sequence": "RRIRFRPPRLPRPRPRPTDLPRP", "shrunken log2 fold change": 0.15}
{"sequence": "RRIRRRPPRLPRPRPRPPFWPRP", "shrunken log2 fold change": 0.959}
{"sequence": "RRIRPRPPRLPRPRPRPQTVPRP", "shrunken log2 fold change": 0.184}
{"sequence": "RRIRTRPPRLPRPRPRPQYEPRP", "shrunken log2 fold change": 0.00772}
{"sequence": "RRIRTRPPRLPRPRPRPAHGPRP", "shrunken log2 fold change": 0.00693}
{"sequence": "RRIRGRPPRLPRPRPRPIRDPRP", "shrunken log2 fold change": 0.0394}
{"sequence": "RRIRKRPPRLPRPRPRPPPLPRP", "shrunken log2 fold change": 0.661}
{"sequence": "RRIRQRPPRLPRPRPRPFSYPRP", "shrunken log2 fold change": -0.0227}
{"sequence": "RRIRDRPPRLPRPRPRPYLFPRP", "shrunken log2 fold change": 1.15}
{"sequence": "RRIRQRPPRLPRPRPRPMLEPRP", "shrunken log2 fold change": 0.0533}
{"sequence": "RRIRYRPPRLPRPRPRPRGEPRP", "shrunken log2 fold change": -0.101}
{"sequence": "RRIRQRPPRLPRPRPRPFISPRP", "shrunken log2 fold change": -0.0195}
{"sequence": "RRIRHRPPRLPRPRPRPKINPRP", "shrunken log2 fold change": -0.817}
{"sequence": "RRIRPRPPRLPRPRPRPLWTPRP", "shrunken log2 fold change": 0.0798}
{"sequence": "RRIRQRPPRLPRPRPRPRRDPRP", "shrunken log2 fold change": 0.308}
{"sequence": "RRIRGRPPRLPRPRPRPHTHPRP", "shrunken log2 fold change": 0.0537}
{"sequence": "RRIRERPPRLPRPRPRPWGCPRP", "shrunken log2 fold change": -0.364}
{"sequence": "RRIRFRPPRLPRPRPRPSETPRP", "shrunken log2 fold change": -0.13}
{"sequence": "RRIRNRPPRLPRPRPRPAQDPRP", "shrunken log2 fold change": 0.288}
